Measurements as given in patent publication US20220298217A1 (FLAGSHIP PIONEERING INNOVATIONS VI, published 2022).
Where “and” joins values, the source holds several entries; their conditions need not be identical. Identical values can stand only once. Blank lines part the entries; values can stand above or below the binder they belong to.

Columns and labels:
[1] = biological target: T1, Flag-PTHR1-YFP (parathyroid hormone receptor 1) expressed in transfected HEK293T cells (human, UniProt Q03431 27-593); test: cell-based or functional assay
T1 sequence (looked up): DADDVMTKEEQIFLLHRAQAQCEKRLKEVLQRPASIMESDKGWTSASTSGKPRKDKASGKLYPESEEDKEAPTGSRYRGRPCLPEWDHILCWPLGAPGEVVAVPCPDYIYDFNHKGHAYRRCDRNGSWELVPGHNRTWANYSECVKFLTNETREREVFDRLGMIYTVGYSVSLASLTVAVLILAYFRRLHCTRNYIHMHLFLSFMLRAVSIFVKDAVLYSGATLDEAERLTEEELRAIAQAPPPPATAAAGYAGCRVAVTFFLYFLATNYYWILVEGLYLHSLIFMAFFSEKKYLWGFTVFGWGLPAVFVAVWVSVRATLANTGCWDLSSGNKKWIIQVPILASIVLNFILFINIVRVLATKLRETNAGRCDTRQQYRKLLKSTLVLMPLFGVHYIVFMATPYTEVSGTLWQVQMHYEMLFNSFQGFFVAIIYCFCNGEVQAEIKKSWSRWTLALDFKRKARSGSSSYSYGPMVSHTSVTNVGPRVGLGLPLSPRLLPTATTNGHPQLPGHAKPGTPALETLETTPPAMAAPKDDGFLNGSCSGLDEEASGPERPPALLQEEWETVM

[2] = biological target: T2, PTHR1 on CHO-K1/Ga15/PTHR1 cells (UniProt Q03431 27-593, limits assumed); test: cell-based or functional assay
T2 sequence (looked up): T1 sequence (looked up)

Binder: AVAEIQLMHQRAKWKLELELKVKLLEILKDVY [R2-25]
- arrestin 1, plate 15: -log10EC50 [1]: -8.27 -log10EC50 and -8.59 -log10EC50
- arrestin 2, plate 16: -log10EC50 [1]: -8.37 -log10EC50 and -8.76 -log10EC50

Binder: GVAELQLMHDLAKIRAEYELREMLLRLLEEIF [R2-1, listing 1 of 2 here]
- arrestin 1, plate 7: -log10EC50 [1]: -15 -log10EC50
- arrestin 1, plate 7: Emax [1]: 6.35
- arrestin 2, plate 8: -log10EC50 [1]: -9.21 -log10EC50
- arrestin 2, plate 8: Emax [1]: 6.41

Binder: GVAELQLMHDLAKIRAEYELREMLLRLLEEIF [R2-1, listing 2 of 2 here]
- cAMP accumulation (HTRF): -log10EC50 [2]: -7.02 -log10EC50 (as headed)
- cAMP accumulation (HTRF): Emax [2]: 102%

Binder: AVAEIQLMHQRAKWLNELRLKEEMRKILEDVY [R2-33]
- arrestin 1, plate 9: -log10EC50 [1]: -8.23 -log10EC50
- arrestin 1, plate 9: Emax [1]: 7.38
- arrestin 1, plate 19: -log10EC50 [1]: -7.99 -log10EC50 and -8.4 -log10EC50
- arrestin 2, plate 10: -log10EC50 [1]: -8.31 -log10EC50
- arrestin 2, plate 20: -log10EC50 [1]: -8.09 -log10EC50 and -8.12 -log10EC50

Binder: AVAEIQLMHQRAKWGLEIELLKLLLSLLKEYI [R2-45]
- arrestin 1, plate 13: -log10EC50 [1]: -6.32 -log10EC50
- arrestin 1, plate 13: Emax [1]: 20.4
- arrestin 1, plate 23: -log10EC50 [1]: -6.33 -log10EC50 and -6.27 -log10EC50
- arrestin 2, plate 24: -log10EC50 [1]: -6.47 -log10EC50 and -6.59 -log10EC50

Binder: AVAEIQLMHQRAKWEIQEIGIKITLDLLQTLK [R2-41]
- arrestin 1, plate 21: -log10EC50 [1]: -8.42 -log10EC50
- arrestin 1, plate 21: Emax [1]: 6.44
- arrestin 2, plate 22: -log10EC50 [1]: -6.03 -log10EC50
- arrestin 2, plate 22: Emax [1]: 23.7

Binder: AVAEIQLMHQRAKWKLELELKEKIRKLLEDLL [R2-29]
- arrestin 1, plate 17: -log10EC50 [1]: -8.15 -log10EC50 and -8.77 -log10EC50
- arrestin 2, plate 18: -log10EC50 [1]: -8.39 -log10EC50 and -8.46 -log10EC50

Binder: AVAEIQLMHQRAKWGLELELKEKLRKILEDVY [R2-26]
- arrestin 1, plate 17: -log10EC50 [1]: -7.89 -log10EC50 and -7.57 -log10EC50
- arrestin 2, plate 18: -log10EC50 [1]: -7.79 -log10EC50 and -7.9 -log10EC50

Binder: GIAVITLMLLRAYLELLEELVKILHELLRRYH [R2-52]
- arrestin 1, plate 25: -log10EC50 [1]: -9.83 -log10EC50
- arrestin 1, plate 25: Emax [1]: 6.37
- arrestin 2, plate 26: Emax [1]: 6.48

Binder: GIAVITLMDLRAYLRAEYELREMLLRLLEEIF [R2-13]
- arrestin 1, plate 15: -log10EC50 [1]: -8.79 -log10EC50
- arrestin 1, plate 15: Emax [1]: 6.38
- arrestin 2, plate 16: -log10EC50 [1]: -14 -log10EC50
- arrestin 2, plate 16: Emax [1]: 6.59

Binder: AVAEIQLMHQRAKWELEYELFEMFLKLLEEIF [I1 (R1-100)]
- arrestin 1, plate 7: -log10EC50 [1]: -6.22 -log10EC50 (2×) and -6.24 -log10EC50
- arrestin 2, plate 8: -log10EC50 [1]: -5.41 -log10EC50 and -7.67 -log10EC50 and -6.27 -log10EC50

Second part, the binder after the results:

- arrestin 1, plate 9: -log10EC50 [1]: -8.56 -log10EC50
- arrestin 1, plate 9: Emax [1]: 7.29
- arrestin 1, plate 19: -log10EC50 [1]: -8.18 -log10EC50 and -8.48 -log10EC50
- arrestin 2, plate 20: -log10EC50 [1]: -8.09 -log10EC50 and -8.34 -log10EC50
Binder: AVAEIQLMHQRAKWRLEIELLKKLKEILKDVY [R2-34]

- arrestin 1, plate 25: -log10EC50 [1]: -4.53 -log10EC50
- arrestin 1, plate 25: Emax [1]: 12.5
- arrestin 2, plate 26: -log10EC50 [1]: -13.8 -log10EC50
- arrestin 2, plate 26: Emax [1]: 6.47
Binder: GIAVITLMVLRALLELQEIGRKITLELLKEYI [R2-51]

- arrestin 1, plate 1: -log10EC50 [1]: -8.58 -log10EC50 and -8.76 -log10EC50 and -8.45 -log10EC50
- arrestin 2, plate 2: -log10EC50 [1]: -8.52 -log10EC50 and -8.51 -log10EC50 and -8.44 -log10EC50
Binder: AVAEIQLMHQRAKWIQDARRRAFLHKLIAEIH [LA-PM-FL (R1-81)]

- arrestin 1, plate 17: -log10EC50 [1]: -15 -log10EC50
- arrestin 1, plate 17: Emax [1]: 6.35
- arrestin 2, plate 18: -log10EC50 [1]: -6.1 -log10EC50
- arrestin 2, plate 18: Emax [1]: 18.5
Binder: AVAEIQLMHQRAKWGLDLELAVKLQEILKDVL [R2-28]

- arrestin 1, plate 9: -log10EC50 [1]: -3.53 -log10EC50
- arrestin 1, plate 9: Emax [1]: 16.9
- arrestin 1, plate 19: -log10EC50 [1]: -6.57 -log10EC50 and -7.44 -log10EC50
- arrestin 2, plate 20: -log10EC50 [1]: -7.67 -log10EC50 and -7.82 -log10EC50
Binder: AVAEIQLMHQRAKWGVELQLKVDLRRILEDVY [R2-35]

- arrestin 1, plate 21: -log10EC50 [1]: -10.7 -log10EC50
- arrestin 1, plate 21: Emax [1]: 6.36
- arrestin 2, plate 22: -log10EC50 [1]: -14 -log10EC50
- arrestin 2, plate 22: Emax [1]: 6.45
Binder: AVAEIQLMHQRAKWELLEELLKILLELLKEYI [R2-38]
